This is an account of results in paper PMC4324299, “Characterization of interactions between inclusion membrane proteins from Chlamydia trachomatis” (Frontiers in Cellular and Infection Microbiology, 2015).

Sequences and labels used below:
B1: Ct222 (natural protein)
chain: MRCCCVRTNYEEVRSSSTGDQVVSAVKERKCDSSLCRKIASVAFTLIGALLLGIGMVLSFALLGSSAGLIGVGVILSALGAVCLSLGLCKLFLRMKRVSLDKAEQKMLEDQVELLRQENQELKALVYSN
notes: Ct222, putative inclusion membrane protein of C. trachomatis; also called Ct222 FL; source: bacterial two-hybrid (BACTH) fusion, co-expressed in E. coli DHT1; not shown: T25 (as bait) or T18 (as prey) fragment of B. pertussis adenylate cyclase, N-terminal, kept
B2: Ct850 (natural protein)
chain: MGFGTVRGKGKAVKSFFLRPLQNLEVGLFSLPIVLLLGEIGCVSSISSVSLVAVLSIVGVFVALVSFFRSWGYGLSVVGAIFFGLALCNNFPVSVFWGGLLTVSFIISYGILLLSVSLVEGHIKEKAVSLSELTASHNSLQDSYNREVQERKEKELLAQSKITALEQELSVSHEQLQEVSRKYTHASEDLQILIDQRDSWLKDYMTLHQEYVRVVAGDEENVIFPWKVFQGNSEKDSGYQQRVQDAEHKIAHLEKLCEEENSGKRYAEECLDKALADLLESTRLREILEKEIFQKDEEIASLKQEIAAEKLLSSSVSDDRAAYKGKYLQLREQFTVKDSFLKKARRERFLAQEQLLVLKRAKEEEASNLSTTDSFSIIQNLLLQIEALEEEVTYLEELVLHNQNR
notes: Ct850, putative inclusion membrane protein of C. trachomatis; source: bacterial two-hybrid (BACTH) fusion, co-expressed in E. coli DHT1; not shown: T25 (as bait) or T18 (as prey) fragment of B. pertussis adenylate cyclase, N-terminal, kept

Assay in all cases: two-hybrid
The series “Ct850” addresses B2. To be noted: partners not purified.
The series “two-hybrid” concerns the molecule itself.
For the series “Ct222”, the target named is B1. To be noted: partners not purified.

In the case of B1, the figures for the β-galactosidase activity in the series with Ct850 and in the series “two-hybrid” were 92 relative units (RU) and 317 relative units (RU), respectively.

For B2, the β-galactosidase activity in the series with Ct222 is 151 relative units (RU).
